Assay results as given in paper PMC3760383.

Legend:
Assay in all cases: EMSA
IFI16 HIN-A = IFI16 HIN-A (Homo sapiens, UniProt Q16666-2 192-393)
p53 (82-360);IFI16 HIN-B = p53 (82-360);IFI16 HIN-B (Homo sapiens;Homo sapiens, UniProt P04637;Q16666-2 82-360;515-710, |)
p53 (82-393);IFI16 HIN-A = p53 (82-393);IFI16 HIN-A (Homo sapiens;Homo sapiens, UniProt P04637;Q16666-2 82-393;192-393, |)

Sequence of IFI16 HIN-A (Q16666 192-393): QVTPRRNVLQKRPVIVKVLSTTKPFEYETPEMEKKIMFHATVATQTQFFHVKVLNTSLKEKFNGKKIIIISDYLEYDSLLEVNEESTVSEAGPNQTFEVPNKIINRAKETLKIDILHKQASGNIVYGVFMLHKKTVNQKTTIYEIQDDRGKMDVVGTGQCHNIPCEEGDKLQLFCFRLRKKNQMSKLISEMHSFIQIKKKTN

B1: p53 consensus 20-mer (dsDNA)
DNA 1: GGACATGCCCGGGCATGTCC
DNA 2: GGACATGCCCGGGCATGTCC
B1: no binding (IFI16 HIN-A); binds (p53 (82-360);IFI16 HIN-B); binds (p53 (82-393);IFI16 HIN-A).
